{
  "source": "patent CN113999303A",
  "about": "(BEIJING GENESEE BIOLOGICAL TECH CO LTD, dated 2022)",
  "binders": {"B1": {"name": "新型冠状病毒核衣壳抗体 mAb#9 (antibody, V domains shown)", "VH": "EVQLVESGGGLVKPGGSLKLSCAASGITFSDYYMYWVRQTPEKRLEWVATISDGGSYTYYPDSVKGRFTISRDNAKNNLYLQMSSLKSEDTAMYYCVRDKSMGFGAWFAYWGQGTLVTVSA", "VL": "EIVLTQSPTTMAASPGEKITITCSASSSISSNYLHWYQQRPGFSPKLLIYRTSNLASGVPARFSGSGSGTSYSLTIGTMEAEDVATYYCQQGHSIPYTFGGGTKLEIK", "notes": "also called 第二新型冠状病毒核衣壳蛋白抗体"}},
  "target": "T1, 新型冠状病毒核衣壳蛋白 (SARS-COV-2, UniProt P0DTC9 1-419)",
  "T1 construct": "also called SARS-COV-2 nucleocapsid protein; N protein",
  "experiment": "ELISA screening of mouse hybridomas for antigen-specific antibodies",
  "data": [
    {"binder": "B1", "values": [
      {"measurement": "binding result", "value": "binds"}
    ]}
  ]
}
